Source: the supplement of paper PMC9112550, “Optimization of the antimicrobial peptide Bac7 by deep mutational scanning” (BMC Biology, 2022)
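Further: peptides expressed intracellularly from a pBAD plasmid library in pooled LB shake-flask culture, induced with 0.3% L-arabinose, DNA abundance read by NGS, three biological replicates, DESeq2 with apeglm shrinkage.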

The sequences below were run on Escherichia coli TOP10 (assay: shrunken log2 fold change of peptide-encoding DNA abundance (4.5 h post-induction vs induction); higher = less antimicrobial activity (less host growth inhibition)). Conditions: time post-induction: 4.5 h; library: site-saturation at positions 5, 18, 19, 20.
RRIRMRPPRLPRPRPRPLVPPRP was tested, and the “shrunken log2 fold change” value was 0.208. RRIRMRPPRLPRPRPRPLWYPRP was tested, and the “shrunken log2 fold change” value was 0.205. RRIRMRPPRLPRPRPRPLYWPRP was tested, and the “shrunken log2 fold change” value was 0.0465. In the case of RRIRMRPPRLPRPRPRPLYYPRP, the “shrunken log2 fold change” value was -0.53. For RRIRMRPPRLPRPRPRPMAMPRP, the “shrunken log2 fold change” value was 0.0319. With RRIRMRPPRLPRPRPRPMANPRP the “shrunken log2 fold change” value was 0.356. RRIRMRPPRLPRPRPRPMDWPRP was tested, and the “shrunken log2 fold change” value was 0.15. In the case of RRIRMRPPRLPRPRPRPMINPRP, the “shrunken log2 fold change” value was -0.00763. With RRIRMRPPRLPRPRPRPMLIPRP the “shrunken log2 fold change” value was -0.00481. With RRIRMRPPRLPRPRPRPMLSPRP the “shrunken log2 fold change” value was 0.0117. With RRIRMRPPRLPRPRPRPMMAPRP the “shrunken log2 fold change” value was 1.8. RRIRMRPPRLPRPRPRPMMPPRP was tested, and the “shrunken log2 fold change” value was 0.0687. RRIRMRPPRLPRPRPRPMMQPRP was tested, and the “shrunken log2 fold change” value was -0.00112. For RRIRMRPPRLPRPRPRPMMTPRP, the “shrunken log2 fold change” value was 0.141. For RRIRMRPPRLPRPRPRPMNIPRP, the “shrunken log2 fold change” value was -0.198. With RRIRMRPPRLPRPRPRPMPNPRP the “shrunken log2 fold change” value was 0.154. In the case of RRIRMRPPRLPRPRPRPMQFPRP, the “shrunken log2 fold change” value was 0.167. RRIRMRPPRLPRPRPRPMRTPRP was tested, and the “shrunken log2 fold change” value was 0.502. For RRIRMRPPRLPRPRPRPMSCPRP, the “shrunken log2 fold change” value was 0.0466. RRIRMRPPRLPRPRPRPMTIPRP was tested, and the “shrunken log2 fold change” value was -0.329. In the case of RRIRMRPPRLPRPRPRPMTSPRP, the “shrunken log2 fold change” value was 0.157. For RRIRMRPPRLPRPRPRPMVHPRP, the “shrunken log2 fold change” value was 0.0734. With RRIRMRPPRLPRPRPRPMVYPRP the “shrunken log2 fold change” value was 0.0294. In the case of RRIRMRPPRLPRPRPRPMYDPRP, the “shrunken log2 fold change” value was -0.0496. In the case of RRIRMRPPRLPRPRPRPMYQPRP, the “shrunken log2 fold change” value was -0.0563. With RRIRMRPPRLPRPRPRPMYRPRP the “shrunken log2 fold change” value was -0.0586. For RRIRMRPPRLPRPRPRPNAIPRP, the “shrunken log2 fold change” value was 0.0397. For RRIRMRPPRLPRPRPRPNCCPRP, the “shrunken log2 fold change” value was -0.0306. For RRIRMRPPRLPRPRPRPNCFPRP, the “shrunken log2 fold change” value was 0.153. In the case of RRIRMRPPRLPRPRPRPNCWPRP, the “shrunken log2 fold change” value was 0.755. RRIRMRPPRLPRPRPRPNFEPRP was tested, and the “shrunken log2 fold change” value was 0.422. In the case of RRIRMRPPRLPRPRPRPNHGPRP, the “shrunken log2 fold change” value was -0.00135. With RRIRMRPPRLPRPRPRPNHIPRP the “shrunken log2 fold change” value was -0.407. With RRIRMRPPRLPRPRPRPNIIPRP the “shrunken log2 fold change” value was 0.23. In the case of RRIRMRPPRLPRPRPRPNIWPRP, the “shrunken log2 fold change” value was 0.785. With RRIRMRPPRLPRPRPRPNKGPRP the “shrunken log2 fold change” value was 0.0758. RRIRMRPPRLPRPRPRPNMLPRP was tested, and the “shrunken log2 fold change” value was -0.358. With RRIRMRPPRLPRPRPRPNMQPRP the “shrunken log2 fold change” value was 0.0607. For RRIRMRPPRLPRPRPRPNNTPRP, the “shrunken log2 fold change” value was -0.292. With RRIRMRPPRLPRPRPRPNPMPRP the “shrunken log2 fold change” value was 0.568. With RRIRMRPPRLPRPRPRPNRDPRP the “shrunken log2 fold change” value was 0.00277. With RRIRMRPPRLPRPRPRPNSFPRP the “shrunken log2 fold change” value was -0.298. In the case of RRIRMRPPRLPRPRPRPNSIPRP, the “shrunken log2 fold change” value was -0.283. For RRIRMRPPRLPRPRPRPNTGPRP, the “shrunken log2 fold change” value was 0.151. With RRIRMRPPRLPRPRPRPNTWPRP the “shrunken log2 fold change” value was 0.454. With RRIRMRPPRLPRPRPRPNVHPRP the “shrunken log2 fold change” value was -0.333. With RRIRMRPPRLPRPRPRPPAAPRP the “shrunken log2 fold change” value was 2.78. In the case of RRIRMRPPRLPRPRPRPPDGPRP, the “shrunken log2 fold change” value was 1.41. For RRIRMRPPRLPRPRPRPPGAPRP, the “shrunken log2 fold change” value was 2.06. In the case of RRIRMRPPRLPRPRPRPPGEPRP, the “shrunken log2 fold change” value was 1.47. With RRIRMRPPRLPRPRPRPPGVPRP the “shrunken log2 fold change” value was 0.919. RRIRMRPPRLPRPRPRPPHLPRP was tested, and the “shrunken log2 fold change” value was 0.389. RRIRMRPPRLPRPRPRPPHWPRP was tested, and the “shrunken log2 fold change” value was 0.898. In the case of RRIRMRPPRLPRPRPRPPIDPRP, the “shrunken log2 fold change” value was 0.0677. For RRIRMRPPRLPRPRPRPPISPRP, the “shrunken log2 fold change” value was 0.163. In the case of RRIRMRPPRLPRPRPRPPKLPRP, the “shrunken log2 fold change” value was 0.343. RRIRMRPPRLPRPRPRPPKVPRP was tested, and the “shrunken log2 fold change” value was 0.272. In the case of RRIRMRPPRLPRPRPRPPLCPRP, the “shrunken log2 fold change” value was 1.72. RRIRMRPPRLPRPRPRPPLSPRP was tested, and the “shrunken log2 fold change” value was 0.185. With RRIRMRPPRLPRPRPRPPMRPRP the “shrunken log2 fold change” value was 1.62. For RRIRMRPPRLPRPRPRPPPWPRP, the “shrunken log2 fold change” value was 1.38. With RRIRMRPPRLPRPRPRPPQMPRP the “shrunken log2 fold change” value was 0.594. With RRIRMRPPRLPRPRPRPPRDPRP the “shrunken log2 fold change” value was 1.6. For RRIRMRPPRLPRPRPRPPSEPRP, the “shrunken log2 fold change” value was 0.962. For RRIRMRPPRLPRPRPRPPSNPRP, the “shrunken log2 fold change” value was 0.104. In the case of RRIRMRPPRLPRPRPRPPTGPRP, the “shrunken log2 fold change” value was 0.858. For RRIRMRPPRLPRPRPRPPTLPRP, the “shrunken log2 fold change” value was 0.256. RRIRMRPPRLPRPRPRPPVLPRP was tested, and the “shrunken log2 fold change” value was -0.122. RRIRMRPPRLPRPRPRPPWHPRP was tested, and the “shrunken log2 fold change” value was 0.438. For RRIRMRPPRLPRPRPRPPYDPRP, the “shrunken log2 fold change” value was 0.0745. With RRIRMRPPRLPRPRPRPPYKPRP the “shrunken log2 fold change” value was -0.163. With RRIRMRPPRLPRPRPRPQADPRP the “shrunken log2 fold change” value was 0.639. For RRIRMRPPRLPRPRPRPQALPRP, the “shrunken log2 fold change” value was 0.0439. RRIRMRPPRLPRPRPRPQDCPRP was tested, and the “shrunken log2 fold change” value was 0.0414. For RRIRMRPPRLPRPRPRPQDRPRP, the “shrunken log2 fold change” value was 0.179.
